According to paper PMC3558936 (Neuron, 2013):

Target: the molecule itself
Experiment: FRET or BRET

B1: Ciona intestinalis Hv1 (Ci-Hv1) D171A/S242C channel (natural protein, UniProt Q1JV40 1-342, looked up)
chain: MEGDNCNKSRHKSHNMINPNYASVRCTQPLPSVIQLRSRNKMIGITEDPSSDSEPVSSNQPLLLTNLSYEVHTFNDNNNHERPAPQEQSTQNTMISMQSEQKSDRFTASNLGMFQYMKFEIGEDGDDHEEEAILTNREKLRHILHSKPIHVAIIVLVVLDSFLVVGELLIALKVIIVPHGNPAPEILHGFSLSILSIFMVEIALKIIADHRHFIHHKVEVLDAVVVVISFGVDIALIFVGECEALAAIGLLVILRLWRVFRIINGIIVTVKTKADDRVHEIKKKNSELELQIHNLEEKLSQKEQDMSRLHEILRCNNIDIPPTVPLTTSVQIHSTTTASADV
modifications: Alexa488-maleimide (donor) or TMR-MTS (acceptor) on the introduced cysteine 242
With B1 the “stoichiometry N” value was 2.
